# Measurements from IntAct's records for PubMed 31515488.
# B1: Tuftelin-interacting protein 11 (Homo sapiens), Q9UBB9 (parent)
# chain: MSLSHLYRDGEGRIDDDDDERENFEITDWDLQNEFNPNRQRHWQTKEEATYGVWAERDSDDERPSFGGKRARDYSAPVNFISAGLKKGAAEEAELEDSDDEEKPVKQDDFPKDFGPRKLKTGGNFKPSQKGFAGGTKSFMDFGSWERHTKGIGQKLLQKMGYVPGRGLGKNAQGIINPIEAKQRKGKGAVGAYGSERTTQSMQDFPVVDSEEEAEEEFQKELSQWRKDPSGSKKKPKYSYKTVEELKAKGRISKKLTAPQKELSQVKVIDMTGREQKVYYSYSQISHKHNVPDDGLPLQSQQLPQSGKEAKAPGFALPELEHNLQLLIDLTEQEIIQNDRQLQYERDMVVNLFHELEKMTEVLDHEERVISNLSKVLEMVEECERRMQPDCSNPLTLDECARIFETLQDKYYEEYRMSDRVDLAVAIVYPLMKEYFKEWDPLKDCTYGTEIISKWKSLLENDQLLSHGGQDLSADAFHRLIWEVWMPFVRNIVTQWQPRNCDPMVDFLDSWVHIIPVWILDNILDQLIFPKLQKEVENWNPLTDTVPIHSWIHPWLPLMQARLEPLYSPIRSKLSSALQKWHPSDSSAKLILQPWKDVFTPGSWEAFMVKNIVPKLGMCLGELVINPHQQHMDAFYWVIDWEGMISVSSLVGLLEKHFFPKWLQVLCSWLSNSPNYEEITKWYLGWKSMFSDQVLAHPSVKDKFNEALDIMNRAVSSNVGAYMQPGARENIAYLTHTERRKDFQYEAMQERREAENMAQRGIGVAASSVPMNFKDLIETKAEEHNIVFMPVIGKRHEGKQLYTFGRIVIYIDRGVVFVQGEKTWVPTSLQSLIDMAK
# partner: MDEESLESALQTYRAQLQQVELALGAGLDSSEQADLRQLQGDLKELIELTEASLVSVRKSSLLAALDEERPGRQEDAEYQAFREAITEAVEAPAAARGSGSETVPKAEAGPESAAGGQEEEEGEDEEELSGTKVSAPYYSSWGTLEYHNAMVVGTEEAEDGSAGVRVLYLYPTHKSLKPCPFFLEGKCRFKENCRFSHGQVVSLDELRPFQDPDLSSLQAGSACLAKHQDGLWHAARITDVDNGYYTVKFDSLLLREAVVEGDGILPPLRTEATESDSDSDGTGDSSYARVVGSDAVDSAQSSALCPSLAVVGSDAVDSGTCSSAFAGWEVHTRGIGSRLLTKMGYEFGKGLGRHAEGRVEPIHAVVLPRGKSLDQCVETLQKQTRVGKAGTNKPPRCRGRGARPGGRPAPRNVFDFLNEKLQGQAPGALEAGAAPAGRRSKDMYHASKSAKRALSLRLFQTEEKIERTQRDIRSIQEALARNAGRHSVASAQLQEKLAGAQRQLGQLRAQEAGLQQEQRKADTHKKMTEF
# B2: Pleckstrin homology domain-containing family N member 1 (Homo sapiens), Q494U1 (parent)
# chain: MGNSHCVPQAPRRLRASFSRKPSLKGNREDSARMSAGLPGPEAARSGDAAANKLFHYIPGTDILDLENQRENLEQPFLSVFKKGRRRVPVRNLGKVVHYAKVQLRFQHSQDVSDCYLELFPAHLYFQAHGSEGLTFQGLLPLTELSVCPLEGSREHAFQITGPLPAPLLVLCPSRAELDRWLYHLEKQTALLGGPRRCHSAPPQRRLTRLRTASGHEPGGSAVCASRVKLQHLPAQEQWDRLLVLYPTSLAIFSEELDGLCFKGELPLRAVHINLEEKEKQIRSFLIEGPLINTIRVVCASYEDYGHWLLCLRAVTHREGAPPLPGAESFPGSQVMGSGRGSLSSGGQTSWDSGCLAPPSTRTSHSLPESSVPSTVGCSSQHTPDQANSDRASIGRRRTELRRSGSSRSPGSKARAEGRGPVTPLHLDLTQLHRLSLESSPDAPDHTSETSHSPLYADPYTPPATSHRRVTDVRGLEEFLSAMQSARGPTPSSPLPSVPVSVPASDPRSCSSGPAGPYLLSKKGALQSRAAQRHRGSAKDGGPQPPDAPQLVSSAREGSPEPWLPLTDGRSPRRSRDPGYDHLWDETLSSSHQKCPQLGGPEASGGLVQWI
# B3: Zinc finger protein 581 (Homo sapiens), Q9P0T4 (parent)
# chain: MLVLPSPCPQPLAFSSVETMEGPPRRTCRSPEPGPSSSIGSPQASSPPRPNHYLLIDTQGVPYTVLVDEESQREPGASGAPGQKKCYSCPVCSRVFEYMSYLQRHSITHSEVKPFECDICGKAFKRASHLARHHSIHLAGGGRPHGCPLCPRRFRDAGELAQHSRVHSGERPFQCPHCPRRFMEQNTLQKHTRWKHP
# Variants of: B1
# Settings: with zgpat_human ZGPAT
row,effect of a mutation on the interaction,Variant
1,with no effect,S688L

# Variants of: B2
# Settings: with itf2_human TCF4, P15884
# Sequence of itf2_human TCF4, P15884 (P15884 whole entry): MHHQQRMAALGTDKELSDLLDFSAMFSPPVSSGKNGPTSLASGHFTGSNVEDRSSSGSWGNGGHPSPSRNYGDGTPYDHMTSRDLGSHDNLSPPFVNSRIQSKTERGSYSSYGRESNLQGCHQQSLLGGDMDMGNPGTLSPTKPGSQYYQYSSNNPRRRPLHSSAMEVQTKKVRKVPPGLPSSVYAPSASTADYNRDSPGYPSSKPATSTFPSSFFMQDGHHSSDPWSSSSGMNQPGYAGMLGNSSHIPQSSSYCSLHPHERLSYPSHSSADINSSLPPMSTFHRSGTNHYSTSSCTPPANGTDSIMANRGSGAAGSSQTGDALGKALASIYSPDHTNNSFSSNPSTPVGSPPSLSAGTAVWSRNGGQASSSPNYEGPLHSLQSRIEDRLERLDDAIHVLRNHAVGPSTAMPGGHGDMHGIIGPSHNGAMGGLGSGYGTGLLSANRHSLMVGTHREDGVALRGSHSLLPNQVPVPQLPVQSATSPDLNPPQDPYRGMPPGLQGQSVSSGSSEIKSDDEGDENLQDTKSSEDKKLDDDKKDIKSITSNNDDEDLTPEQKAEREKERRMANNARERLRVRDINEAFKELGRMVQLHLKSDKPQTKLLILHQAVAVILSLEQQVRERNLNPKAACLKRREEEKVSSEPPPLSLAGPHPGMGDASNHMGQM
row,effect of a mutation on the interaction,Variant
1,with no effect,R487P

# Variants of: B2
# Settings: with traf1_human TRAF1, Q13077
# Sequence of traf1_human TRAF1, Q13077 (Q13077 whole entry): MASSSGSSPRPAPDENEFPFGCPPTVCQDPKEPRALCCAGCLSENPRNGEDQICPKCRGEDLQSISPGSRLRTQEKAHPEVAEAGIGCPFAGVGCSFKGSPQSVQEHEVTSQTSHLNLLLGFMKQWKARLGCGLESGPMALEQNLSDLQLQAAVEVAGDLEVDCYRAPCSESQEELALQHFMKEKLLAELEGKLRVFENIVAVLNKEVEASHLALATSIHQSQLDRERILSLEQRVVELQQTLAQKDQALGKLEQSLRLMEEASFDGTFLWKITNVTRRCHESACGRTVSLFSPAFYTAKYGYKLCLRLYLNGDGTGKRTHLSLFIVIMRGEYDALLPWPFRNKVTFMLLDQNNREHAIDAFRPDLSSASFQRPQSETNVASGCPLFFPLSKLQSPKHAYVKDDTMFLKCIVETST
row,effect of a mutation on the interaction,Variant
1,with no effect,R487P

# Variants of: B2
# Settings: with taxb1_human TAX1BP1, Q86VP1
# Sequence of taxb1_human TAX1BP1, Q86VP1 (Q86VP1 whole entry): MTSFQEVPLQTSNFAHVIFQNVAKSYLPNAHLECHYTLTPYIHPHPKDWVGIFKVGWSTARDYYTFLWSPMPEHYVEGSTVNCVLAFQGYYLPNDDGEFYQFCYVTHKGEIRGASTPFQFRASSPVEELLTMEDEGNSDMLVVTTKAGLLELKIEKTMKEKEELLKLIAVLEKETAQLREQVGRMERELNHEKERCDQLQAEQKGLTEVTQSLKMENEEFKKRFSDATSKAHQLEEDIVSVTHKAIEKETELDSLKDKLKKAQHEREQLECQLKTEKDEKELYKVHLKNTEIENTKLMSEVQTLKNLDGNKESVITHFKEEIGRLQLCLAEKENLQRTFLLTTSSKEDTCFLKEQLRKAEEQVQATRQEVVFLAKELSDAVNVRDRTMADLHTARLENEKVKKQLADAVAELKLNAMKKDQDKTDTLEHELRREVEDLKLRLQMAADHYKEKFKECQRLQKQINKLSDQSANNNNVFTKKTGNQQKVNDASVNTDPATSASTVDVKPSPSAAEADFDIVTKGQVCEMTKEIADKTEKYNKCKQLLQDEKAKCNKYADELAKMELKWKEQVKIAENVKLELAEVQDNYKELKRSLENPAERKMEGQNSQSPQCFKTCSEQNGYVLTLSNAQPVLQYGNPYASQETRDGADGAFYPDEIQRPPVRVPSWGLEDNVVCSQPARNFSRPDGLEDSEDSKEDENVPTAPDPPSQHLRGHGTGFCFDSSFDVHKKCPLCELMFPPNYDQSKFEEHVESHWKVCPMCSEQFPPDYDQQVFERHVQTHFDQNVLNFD
row,effect of a mutation on the interaction,Variant
1,with no effect,R487P

# Variants of: B3
# Settings: with cc136_human CCDC136, Q96JN2
# Sequence of cc136_human CCDC136, Q96JN2 (Q96JN2 whole entry): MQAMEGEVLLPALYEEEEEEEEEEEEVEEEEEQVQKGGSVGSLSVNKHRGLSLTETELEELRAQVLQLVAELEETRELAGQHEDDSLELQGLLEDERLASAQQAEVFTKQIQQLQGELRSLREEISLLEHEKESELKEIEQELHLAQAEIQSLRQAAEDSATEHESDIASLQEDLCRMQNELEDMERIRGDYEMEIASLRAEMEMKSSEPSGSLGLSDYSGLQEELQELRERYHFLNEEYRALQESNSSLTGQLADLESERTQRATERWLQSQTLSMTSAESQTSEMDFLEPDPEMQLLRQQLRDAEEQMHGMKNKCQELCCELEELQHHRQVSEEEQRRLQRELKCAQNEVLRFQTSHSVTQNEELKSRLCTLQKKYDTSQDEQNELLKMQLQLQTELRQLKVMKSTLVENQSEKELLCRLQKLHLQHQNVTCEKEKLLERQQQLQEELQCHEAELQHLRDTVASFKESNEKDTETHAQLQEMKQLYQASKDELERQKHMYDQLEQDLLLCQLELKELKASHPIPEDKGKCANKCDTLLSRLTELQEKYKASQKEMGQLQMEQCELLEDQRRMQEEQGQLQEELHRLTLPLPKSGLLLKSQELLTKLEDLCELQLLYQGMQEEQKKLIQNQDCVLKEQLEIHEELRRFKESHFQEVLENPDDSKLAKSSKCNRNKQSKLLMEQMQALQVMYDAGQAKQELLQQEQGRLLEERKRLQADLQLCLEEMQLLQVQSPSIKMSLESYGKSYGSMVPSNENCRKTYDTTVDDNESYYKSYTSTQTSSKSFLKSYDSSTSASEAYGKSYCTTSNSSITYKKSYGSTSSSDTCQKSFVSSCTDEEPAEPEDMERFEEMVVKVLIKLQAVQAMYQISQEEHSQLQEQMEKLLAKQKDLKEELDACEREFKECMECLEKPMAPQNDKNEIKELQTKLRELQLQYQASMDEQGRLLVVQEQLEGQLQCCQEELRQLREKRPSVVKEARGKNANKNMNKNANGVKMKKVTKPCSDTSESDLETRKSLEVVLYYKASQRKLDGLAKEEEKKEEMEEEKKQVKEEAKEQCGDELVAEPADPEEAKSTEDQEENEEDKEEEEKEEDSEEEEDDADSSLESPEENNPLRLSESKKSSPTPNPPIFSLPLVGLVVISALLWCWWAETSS
row,effect of a mutation on the interaction,Variant
1,with no effect,MLVLPSPCPQPLAFSSVETMEGPPRRTCRSPAPGPSSSIGSPQASSPPRPNHYLLIDTQGVPYTVLVDEESQREPGASGAPGQKKCYSCPVCSRVFEYMSYLQRHSITHSEVKPFECDICGKAFKRASHLARHHSIHLAGGGRPHGCPLCPRRFRDAGELAQHSRVHSGERPFQCPHCPRRFMEQNTLQKHTRWKHP [E32A]
2,with no effect,MLVLPSPCPQPLAFSSVETMEGPPRRTCRSPEPGPSSSIGSPQASSPPRPNHYLLIDTQGVPYTVLVDEESQREPGASGAPGQKKCYSCPVCSRVFEYMSYLQRHSITHSEVKPFECDICGKAFKRASHLARHHSIHLAGGGWPHGCPLCPRRFRDAGELAQHSRVHSGERPFQCPHCPRRFMEQNTLQKHTRWKHP [R143W]

# Variants of: B3
# Settings: with mtus2_human MTUS2, Q5JR59
# Sequence of mtus2_human MTUS2, Q5JR59 (Q5JR59 whole entry): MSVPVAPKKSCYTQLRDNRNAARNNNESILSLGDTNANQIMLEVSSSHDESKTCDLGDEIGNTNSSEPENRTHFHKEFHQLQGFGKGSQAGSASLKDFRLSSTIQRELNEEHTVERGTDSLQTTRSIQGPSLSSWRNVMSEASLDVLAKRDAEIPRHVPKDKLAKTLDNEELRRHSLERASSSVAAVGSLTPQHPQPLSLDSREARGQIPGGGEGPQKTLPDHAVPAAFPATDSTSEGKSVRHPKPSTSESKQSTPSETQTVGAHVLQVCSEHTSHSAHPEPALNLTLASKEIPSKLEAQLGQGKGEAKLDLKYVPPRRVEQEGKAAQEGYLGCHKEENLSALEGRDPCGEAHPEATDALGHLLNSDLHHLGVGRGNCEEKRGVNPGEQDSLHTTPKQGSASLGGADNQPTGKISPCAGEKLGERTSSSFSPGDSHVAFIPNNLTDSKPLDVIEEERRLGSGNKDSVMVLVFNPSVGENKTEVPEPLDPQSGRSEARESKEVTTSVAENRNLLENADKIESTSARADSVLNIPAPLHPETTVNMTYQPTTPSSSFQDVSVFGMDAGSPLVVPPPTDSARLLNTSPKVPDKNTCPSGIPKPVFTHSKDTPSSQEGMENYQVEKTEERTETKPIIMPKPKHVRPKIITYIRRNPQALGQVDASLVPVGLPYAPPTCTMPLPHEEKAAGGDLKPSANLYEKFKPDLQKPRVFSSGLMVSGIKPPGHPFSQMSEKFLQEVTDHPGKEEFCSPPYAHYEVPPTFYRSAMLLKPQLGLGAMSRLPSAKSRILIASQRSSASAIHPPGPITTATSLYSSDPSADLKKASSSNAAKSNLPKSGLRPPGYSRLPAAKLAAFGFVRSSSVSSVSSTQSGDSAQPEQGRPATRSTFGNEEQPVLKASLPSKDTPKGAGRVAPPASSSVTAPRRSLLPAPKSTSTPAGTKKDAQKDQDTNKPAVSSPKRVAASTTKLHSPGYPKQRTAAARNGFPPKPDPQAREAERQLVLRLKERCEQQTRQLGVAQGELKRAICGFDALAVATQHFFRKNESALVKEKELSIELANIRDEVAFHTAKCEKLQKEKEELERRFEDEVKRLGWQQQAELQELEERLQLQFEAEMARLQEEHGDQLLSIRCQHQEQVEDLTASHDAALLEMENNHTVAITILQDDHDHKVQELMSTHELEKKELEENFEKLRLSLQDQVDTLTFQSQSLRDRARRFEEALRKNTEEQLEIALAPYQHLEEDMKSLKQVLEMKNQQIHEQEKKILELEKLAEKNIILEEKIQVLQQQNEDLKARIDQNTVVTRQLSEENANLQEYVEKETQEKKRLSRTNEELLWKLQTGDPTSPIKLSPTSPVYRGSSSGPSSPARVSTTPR
row,effect of a mutation on the interaction,Variant
1,with no effect,MLVLPSPCPQPLAFSSVETMEGPPRRTCRSPAPGPSSSIGSPQASSPPRPNHYLLIDTQGVPYTVLVDEESQREPGASGAPGQKKCYSCPVCSRVFEYMSYLQRHSITHSEVKPFECDICGKAFKRASHLARHHSIHLAGGGRPHGCPLCPRRFRDAGELAQHSRVHSGERPFQCPHCPRRFMEQNTLQKHTRWKHP [E32A]
2,with no effect,MLVLPSPCPQPLAFSSVETMEGPPRRTCRSPEPGPSSSIGSPQASSPPRPNHYLLIDTQGVPYTVLVDEESQREPGASGAPGQKKCYSCPVCSRVFEYMSYLQRHSITHSEVKPFECDICGKAFKRASHLARHHSIHLAGGGWPHGCPLCPRRFRDAGELAQHSRVHSGERPFQCPHCPRRFMEQNTLQKHTRWKHP [R143W]

# Variants of: B3
# Settings: with tri23_human TRIM23, P36406
# Sequence of tri23_human TRIM23, P36406 (P36406 whole entry): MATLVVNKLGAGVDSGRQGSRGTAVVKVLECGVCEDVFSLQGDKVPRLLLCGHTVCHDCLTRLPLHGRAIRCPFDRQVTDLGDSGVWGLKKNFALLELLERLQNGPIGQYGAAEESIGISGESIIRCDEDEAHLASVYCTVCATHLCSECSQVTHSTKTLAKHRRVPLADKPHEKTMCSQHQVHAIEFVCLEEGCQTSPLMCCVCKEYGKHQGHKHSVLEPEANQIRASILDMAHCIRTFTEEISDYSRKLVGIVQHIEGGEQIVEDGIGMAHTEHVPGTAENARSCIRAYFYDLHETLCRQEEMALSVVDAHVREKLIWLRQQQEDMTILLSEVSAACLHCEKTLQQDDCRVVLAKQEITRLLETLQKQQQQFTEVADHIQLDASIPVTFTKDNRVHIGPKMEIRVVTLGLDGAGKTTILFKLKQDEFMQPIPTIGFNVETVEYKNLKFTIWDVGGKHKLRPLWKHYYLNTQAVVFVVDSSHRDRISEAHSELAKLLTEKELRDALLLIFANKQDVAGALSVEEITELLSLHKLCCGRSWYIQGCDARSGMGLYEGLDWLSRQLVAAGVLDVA
row,effect of a mutation on the interaction,Variant
1,with no effect,MLVLPSPCPQPLAFSSVETMEGPPRRTCRSPAPGPSSSIGSPQASSPPRPNHYLLIDTQGVPYTVLVDEESQREPGASGAPGQKKCYSCPVCSRVFEYMSYLQRHSITHSEVKPFECDICGKAFKRASHLARHHSIHLAGGGRPHGCPLCPRRFRDAGELAQHSRVHSGERPFQCPHCPRRFMEQNTLQKHTRWKHP [E32A]
2,with no effect,MLVLPSPCPQPLAFSSVETMEGPPRRTCRSPEPGPSSSIGSPQASSPPRPNHYLLIDTQGVPYTVLVDEESQREPGASGAPGQKKCYSCPVCSRVFEYMSYLQRHSITHSEVKPFECDICGKAFKRASHLARHHSIHLAGGGWPHGCPLCPRRFRDAGELAQHSRVHSGERPFQCPHCPRRFMEQNTLQKHTRWKHP [R143W]
